Positions count from the first letter of the chain named. Blank lines part the entries; values can stand above or below the binder they belong to.
How the values were obtained:
Experiment in all cases: SPR Biacore, biotinylated receptor on SA sensor, pH 7.4, 15 C
[1] = target: T1, CTLA4 Fc bIgG1aSAP (canine; bovine, UniProt Q9XSI1 36-161, limits assumed)
T1 construct: No linker
T1 sequence: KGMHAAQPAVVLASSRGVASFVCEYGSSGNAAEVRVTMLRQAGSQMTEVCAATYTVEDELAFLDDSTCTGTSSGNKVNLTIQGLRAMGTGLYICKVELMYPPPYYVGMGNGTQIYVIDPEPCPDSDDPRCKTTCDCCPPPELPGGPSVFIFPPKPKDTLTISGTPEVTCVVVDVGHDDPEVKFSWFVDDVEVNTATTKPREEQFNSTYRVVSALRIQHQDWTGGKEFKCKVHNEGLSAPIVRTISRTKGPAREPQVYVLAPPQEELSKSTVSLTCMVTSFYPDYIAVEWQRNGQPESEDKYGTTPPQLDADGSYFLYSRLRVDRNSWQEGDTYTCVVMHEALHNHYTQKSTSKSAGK
Method: (§1) A Biacore SPR binding assay was designed to test the affinity of bovine IgG subclasses to bFcgR1, bFcgR2 and bFcgR3. All reported KD's were measured by Biacore (Cytiva, Marlborough, MA, USA) using series S SA sensor. Biotinylated-bovine FcgR1, R2 and R3 were captured on the sensor surface using a modified SA capture method to reach the desired surface density. 10 mM HEPES, 150 mM NaCl, 3 mM EDTA, 0.05% v/v surfactant P20, pH7.4 buffer was used as the running and titration buffer. Various concentrations of bovine CTLA4-Fc fusions or mAbs were titrated and flowed over the receptor surface and affinities were determined using Biacore T200 Evaluation software (Cytiva, Marlborough, MA, USA) with 1:1 binding model. The method of double referencing has been applied where the reference flow cell was subtracted from the flow cell containing immobilized receptors and blank runs containing buffer only were subtracted out from all runs. Flow cells were regenerated using 10 mM Glycine pH1.5. Runs were performed at 15° C.
(§2) The ability to knock out binding to bovine Fc gamma receptors was evaluated by comparing SPR Biacore bFcgR affinity of bIgG1a and bIgG1b wildtype Fc to the bIgG1a and bIgG1b mutations, described above. All mutations made to bIgG1 are identical for the a and b allotypes. Biacore methods for bFcgR1, R2, and R3 were performed as described in Example 1.

[2] = target: T2, CTLA4 Fc bIgG1aSAS (canine; bovine, UniProt Q9XSI1 36-161, limits assumed)
T2 construct: No linker
T2 sequence: T1 sequence with P239S
Method: as §1, §2

[3] = target: T3, CTLA4 Fc bIgG1aWinSAS (canine; bovine, UniProt Q9XSI1 36-161, limits assumed)
T3 construct: No linker
T3 sequence: T1 sequence with L142A, P143A, G145A, P239S
Method: as §1, §2

[4] = target: T4, CTLA4 Fc bIgG3a (canine; bovine, UniProt Q9XSI1 36-161, limits assumed)
T4 construct: No linker; also called bIgG3a wildtype; CTLA4 Fc bIgG3a wildtype
T4 sequence: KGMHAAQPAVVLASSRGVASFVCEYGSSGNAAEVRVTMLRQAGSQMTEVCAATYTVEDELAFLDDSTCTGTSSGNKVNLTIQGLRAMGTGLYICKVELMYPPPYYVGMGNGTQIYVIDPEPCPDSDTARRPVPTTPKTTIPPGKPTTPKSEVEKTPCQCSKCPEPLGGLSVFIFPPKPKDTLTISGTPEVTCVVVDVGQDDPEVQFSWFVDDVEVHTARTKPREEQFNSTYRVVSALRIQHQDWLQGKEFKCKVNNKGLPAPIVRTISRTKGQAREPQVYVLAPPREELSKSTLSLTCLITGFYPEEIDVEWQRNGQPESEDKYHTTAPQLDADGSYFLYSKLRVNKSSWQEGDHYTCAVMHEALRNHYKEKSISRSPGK
Method: as §1
(§3) Biacore methods for bFcgR1, R2, and R3 were performed as described in Examples above. […] Although the two allotypes have different KDs for bFcgR2 and bFcgR3, both wildtype allotypes do bind. All of the mutations, bIgG3Win, bIgG3WinSAS, bIgG3SAS and bIgG3SAP for both the a and b allotypes knocked down binding to bFcgR1, bFcgR2 and bFcgR3 to negligible affinities. Thus, for knocking out receptor binding, the two allotypes compare similarly.

[5] = target: T5, CTLA4 Fc bIgG3aWin (canine; bovine, UniProt Q9XSI1 36-161, limits assumed)
T5 construct: No linker
T5 sequence: T4 sequence with P165A, L166A, G168A
Method: as §1, §3

binding result [1]: no binding | binding result [2]: no binding | binding result [3]: no binding | Kd [4]: 0.0689 µM | binding result [5]: no binding
B1: recombinant bovine FcgR2 (receptor)
chain: KPDLPKAVVTIQPAWINVLREDHVTLTCQGTSFSAGNLTTWFHNGSSIHTQKQPSYSFRAGSNDSGSYRCQREQTSLSDPVHLDVISDWLLLQTPSLVFQEGEPIMLRCHSWRNQPLNKITFYQDRKSKIFSYQRTNFSIPRANLSHSGQYHCTAFIGKMLHSSQPVNITVQESSSSGPSSMTHHHHHHAGLNDIFEAQKIEWHE
modifications: biotin on the BAP tag (BirA)
notes: also called bFcgR2; bFcgRII

binding result [1]: no binding | binding result [2]: no binding | binding result [3]: no binding | Kd [4]: 7.17 µM | binding result [5]: no binding
B2: recombinant bovine FcgR3 (receptor)
chain: DTQTADPSKAVVLLDPQWNHVLTNDRVTLKCQGDYPVEDNSTKWWHNGTLISSQTPSYFIADVKVQDSGEYKCQTGLSAPSDPVKLEVHVGWLLLQVAQRVVNVGKPIRLKCHSWKKTPVAKVQYFRNGRGKKYSHGNSDFHIPEAKLEHSGSYFCRGIIGSKNESSESVQITVQAPETLQTVSSFFLPWHQHHHHHHAGLNDIFEAQKIEWHE
modifications: biotin on the BAP tag (BirA)
notes: also called bFcgR3; bFcgRIII
